From US20250163127A1

Legend:
[1] = molecular target: PD-L1 (human); assay: flow cytometry, cells expressing PD-L1
[2] = molecular target: CD28 (human) (UniProt P10747); assay: flow cytometry, cells expressing CD28
[3] = molecular target: CTLA-4 (human); assay: flow cytometry, cells expressing CTLA-4
[4] = molecular target: CD28 (human) (UniProt P10747); assay: flow cytometry, Jurkat cells (CD28)
[5] = molecular target: CTLA-4 (human); assay: flow cytometry, CHO cells expressing CTLA4
[6] = molecular target: PD-L1 (human); assay: flow cytometry, CHO cells expressing PD-L1
[7] = molecular target: human PD-1 (human) (UniProt Q15116)
Sequence of human PD-1 (human) (Q15116 25-288): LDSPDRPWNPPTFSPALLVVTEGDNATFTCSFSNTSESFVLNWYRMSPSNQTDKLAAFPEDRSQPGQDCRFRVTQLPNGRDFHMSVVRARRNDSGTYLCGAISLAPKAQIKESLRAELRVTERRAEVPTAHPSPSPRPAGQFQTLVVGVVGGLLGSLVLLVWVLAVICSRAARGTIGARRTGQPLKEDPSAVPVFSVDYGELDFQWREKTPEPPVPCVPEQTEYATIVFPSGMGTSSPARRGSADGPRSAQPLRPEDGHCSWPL

[8] = molecular target: PD-1-Fc (human) (UniProt Q15116); assay: ForteBio Octet, PD-1 on anti-human capture sensor, 100 nM
Sequence of PD-1-Fc (human) (Q15116 25-167 limits assumed): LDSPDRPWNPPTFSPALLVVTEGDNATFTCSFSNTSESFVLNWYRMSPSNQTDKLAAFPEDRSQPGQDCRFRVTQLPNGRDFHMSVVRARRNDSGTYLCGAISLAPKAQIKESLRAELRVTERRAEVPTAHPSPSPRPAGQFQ

Sequence of CTLA-4 (human) (chain, as listed by the source): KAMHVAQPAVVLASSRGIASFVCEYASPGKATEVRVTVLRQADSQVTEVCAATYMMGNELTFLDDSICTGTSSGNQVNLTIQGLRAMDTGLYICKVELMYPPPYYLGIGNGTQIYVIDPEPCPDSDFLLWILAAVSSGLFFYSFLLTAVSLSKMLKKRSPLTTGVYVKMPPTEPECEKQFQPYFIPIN
Sequence of PD-L1 (human) (chain, as listed by the source): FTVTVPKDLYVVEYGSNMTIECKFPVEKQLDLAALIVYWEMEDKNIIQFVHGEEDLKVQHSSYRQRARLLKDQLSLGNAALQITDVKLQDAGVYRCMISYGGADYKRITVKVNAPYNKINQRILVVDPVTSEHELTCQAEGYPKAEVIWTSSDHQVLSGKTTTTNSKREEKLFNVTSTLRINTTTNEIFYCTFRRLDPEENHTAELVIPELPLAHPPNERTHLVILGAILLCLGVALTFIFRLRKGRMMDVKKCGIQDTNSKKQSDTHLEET

| Binder | Fold change to WT CD80 [4] | MFI at 33.3 nM [4] | Fold change to WT CD80 [5] | MFI at 33.3 nM [5] | Fold change to WT CD80 [6] | MFI at 33.3 nM [6] | Fortebio Response Units (Response Units) [8] | further results |
| --- | --- | --- | --- | --- | --- | --- | --- | --- |
| variant CD80 E24G/R29D/Y31L/Q33H/K36G/M38I/T41A/M43R/M47T/F59L/E81V/L85R/K89N/A91T/F92P/K93V/R94L/H96R/N149S/C182S (Fc fusion) VIHVTKEVKEVATLSCGHNVSVEGLAQTDILWHKEGKIVLAMRSGDTNIWPEYKNRTILDITNNLSIVILALRPSDEGTYVCVVRKYENDTPVLERLAEVTLSVKADFPTPSISDFEIPTSNIRRIICSTSGGFPEPHLSWLENGEELSAINTTVSQDPETELYAVSSKLDFNMTTNHSFMSLIKYGHLRVNQTFNWNTTKQEHFPDN | – | – | – | – | – | – | – | MFI [1]: 1120 MFI; parental ratio [1]: 0.06; MFI [2]: 1070 MFI; parental ratio [2]: 0.08; MFI [3]: 1020 MFI; parental ratio [3]: 0.02 |
| variant CD80 E35D/L85Q/K93T/E95V/L97Q (Fc fusion) VIHVTKEVKEVATLSCGHNVSVEELAQTRIYWQKDKKMVLTMMSGDMNIWPEYKNRTIFDITNNLSIVILALRPSDEGTYECVVQKYEKDAFTRVHQAEVT | 0.02 fold | 400 MFI | 1.57 fold | 246000 MFI | 1.67 fold | 19900 MFI | – | – |
| variant CD80 R29H/E35D/M43V/M47I/I49V (Fc fusion) VIHVTKEVKEVATLSCGHNVSVEELAQTHIYWQKDKKMVLTMVSGDINVWPEYKNRTIFDITNNLSIVILALRPSDEGTYECVVLKYEKDAFKREHLAEVT | 0.02 fold | 336 MFI | 0.03 fold | 4690 MFI | 0.13 fold | 1590 MFI | – | – |
| variant CD80 E35D/M47V/N48K/V68M/K89N (Fc fusion) VIHVTKEVKEVATLSCGHNVSVEELAQTRIYWQKDKKMVLTMMSGDVKIWPEYKNRTIFDITNNLSIMILALRPSDEGTYECVVLKYENDAFKREHLAEVT | 0.65 fold | 11700 MFI | 0.01 fold | 807 MFI | 7.56 fold | 89800 MFI | – | – |
| variant CD80 E35D/D46E/M47V/N63D/L85Q (Fc fusion) VIHVTKEVKEVATLSCGHNVSVEELAQTRIYWQKDKKMVLTMMSGEVNIWPEYKNRTIFDITDNLSIVILALRPSDEGTYECVVQKYEKDAFKREHLAEVT | 0.07 fold | 1330 MFI | 1.74 fold | 274000 MFI | 5.88 fold | 69800 MFI | – | – |
| variant CD80 E35D/T41S/M43V/M47I/L70M/A71G (Fc fusion) VIHVTKEVKEVATLSCGHNVSVEELAQTRIYWQKDKKMVLSMVSGDINIWPEYKNRTIFDITNNLSIVIMGLRPSDEGTYECVVLKYEKDAFKREHLAEVT | 0.15 fold | 2700 MFI | 1.59 fold | 249000 MFI | 1.09 fold | 13000 MFI | – | – |
| variant CD80 Q33L/E35D/M47I/N48D/A71G (Fc fusion) VIHVTKEVKEVATLSCGHNVSVEELAQTRIYWLKDKKMVLTMMSGDIDIWPEYKNRTIFDITNNLSIVILGLRPSDEGTYECVVLKYEKDAFKREHLAEVT | 0.04 fold | 644 MFI | 0.74 fold | 117000 MFI | 2.62 fold | 31200 MFI | – | – |
| variant CD80 E35D/M47I/T62S/L85Q (Fc fusion) VIHVTKEVKEVATLSCGHNVSVEELAQTRIYWQKDKKMVLTMMSGDINIWPEYKNRTIFDISNNLSIVILALRPSDEGTYECVVQKYEKDAFKREHLAEVT | 0.1 fold | 1760 MFI | 1.91 fold | 301000 MFI | 3.79 fold | 45000 MFI | – | – |
| variant CD80 E35D/M47I/L85Q/D90G (Fc fusion) VIHVTKEVKEVATLSCGHNVSVEELAQTRIYWQKDKKMVLTMMSGDINIWPEYKNRTIFDITNNLSIVILALRPSDEGTYECVVQKYEKGAFKREHLAEVT | 0.23 fold | 4100 MFI | 1.57 fold | 248000 MFI | 3.01 fold | 35700 MFI | – | – |
| variant CD80 V22A/E35D/M47I/Y87N (Fc fusion) VIHVTKEVKEVATLSCGHNVSAEELAQTRIYWQKDKKMVLTMMSGDINIWPEYKNRTIFDITNNLSIVILALRPSDEGTYECVVLKNEKDAFKREHLAEVT | – | 15300 MFI | – | 246000 MFI | – | – | – | – |
| variant CD80 E35D/M47L/A71G/L85M/F92Y (Fc fusion) VIHVTKEVKEVATLSCGHNVSVEELAQTRIYWQKDKKMVLTMMSGDLNIWPEYKNRTIFDITNNLSIVILGLRPSDEGTYECVVMKYEKDAYKREHLAEVT | 0.14 fold | 2460 MFI | 1.37 fold | 216000 MFI | 3.93 fold | 46700 MFI | – | – |
| variant CD80 Q27H/E35D/M47I/L85Q/D90G (Fc fusion) VIHVTKEVKEVATLSCGHNVSVEELAHTRIYWQKDKKMVLTMMSGDINIWPEYKNRTIFDITNNLSIVILALRPSDEGTYECVVQKYEKGAFKREHLAEVT | 0.19 fold | 3510 MFI | 1.64 fold | 258000 MFI | 2.58 fold | 30700 MFI | – | – |
| variant CD80 E35D/D46E/M47V/V68M/D90G/K93E (Fc fusion) VIHVTKEVKEVATLSCGHNVSVEELAQTRIYWQKDKKMVLTMMSGEVNIWPEYKNRTIFDITNNLSIMILALRPSDEGTYECVVLKYEKGAFEREHLAEVT | 1.5 fold | 27100 MFI | 1.74 fold | 273000 MFI | 6.06 fold | 71900 MFI | – | – |
| variant CD80 R29V/M43Q/E81R/L85I/K89R/D90L/A91E/F92N/K93Q/R94G (Fc fusion) VIHVTKEVKEVATLSCGHNVSVEELAQTVIYWQKEKKMVLTMQSGDMNIWPEYKNRTIFDITNNLSIVILALRPSDEGTYRCVVIKYERLENQGEHLAEVTLSVKADFPTPSISDFEIPTSNIRRIICSTSGGFPEPHLSWLENGEELNAINTTVSQDPETELYAVSSKLDFNMTTNHSFMCLIKYGHLRVNQTFNWNTTKQEHFPDN | – | – | – | – | – | – | – | MFI [1]: 1580 MFI; parental ratio [1]: 0.09; MFI [2]: 1030 MFI; parental ratio [2]: 0.08; MFI [3]: 996 MFI; parental ratio [3]: 0.02 |
| variant PD-L2 IgV H15Q Fc fusion (Fc fusion) LFTVTVPKELYIIEQGSNVTLECNFDTGSHVNLGAITASLQKVENDTSPHRERATLLEEQLPLGKASFHIPQVQVRDEGQYQCIIIYGVAWDYKYLTLKVKA | – | – | – | – | – | – | 0.007 | IFN gamma levels pg/mL (MLR) [7]: 1820 pg/mL |
| variant PD-L2 IgV H15Q/Q82R/V89D Fc fusion (Fc fusion) LFTVTVPKELYIIEQGSNVTLECNFDTGSHVNLGAITASLQKVENDTSPHRERATLLEEQLPLGKASFHIPQVQVRDEGQYRCIIIYGDAWDYKYLTLKVKA | – | – | – | – | – | – | 1.2 | IFN gamma levels pg/mL (MLR) [7]: 1080 pg/mL |
| variant PD-L2 IgV E44D Fc fusion (Fc fusion) LFTVTVPKELYIIEHGSNVTLECNFDTGSHVNLGAITASLQKVDNDTSPHRERATLLEEQLPLGKASFHIPQVQVRDEGQYQCIIIYGVAWDYKYLTLKVKA | – | – | – | – | – | – | -0.006 | IFN gamma levels pg/mL (MLR) [7]: 1500 pg/mL |
| variant PD-L2 IgV S67L/I85F Fc fusion (Fc fusion) LFTVTVPKELYIIEHGSNVTLECNFDTGSHVNLGAITASLQKVENDTSPHRERATLLEEQLPLGKALFHIPQVQVRDEGQYQCIFIYGVAWDYKYLTLKVKA | – | – | – | – | – | – | -0.005 | IFN gamma levels pg/mL (MLR) [7]: 1280 pg/mL |
| variant PD-L2 IgV N24D Fc fusion (Fc fusion) LFTVTVPKELYIIEHGSNVTLECDFDTGSHVNLGAITASLQKVENDTSPHRERATLLEEQLPLGKASFHIPQVQVRDEGQYQCIIIYGVAWDYKYLTLKVKA | – | – | – | – | – | – | -0.039 | IFN gamma levels pg/mL (MLR) [7]: 1980 pg/mL |
| variant PD-L2 IgV I13V/E44D/Q82R/V89D Fc fusion (Fc fusion) LFTVTVPKELYIVEHGSNVTLECNFDTGSHVNLGAITASLQKVDNDTSPHRERATLLEEQLPLGKASFHIPQVQVRDEGQYRCIIIYGDAWDYKYLTLKVKA | – | – | – | – | – | – | 1.28 | – |
| variant PD-L2 IgV H15Q/K65R Fc fusion (Fc fusion) LFTVTVPKELYIIEQGSNVTLECNFDTGSHVNLGAITASLQKVENDTSPHRERATLLEEQLPLGRASFHIPQVQVRDEGQYQCIIIYGVAWDYKYLTLKVKA | – | – | – | – | – | – | -0.001 | IFN gamma levels pg/mL (MLR) [7]: 1510 pg/mL |
| variant PD-L2 IgV V89D Fc fusion (Fc fusion) LFTVTVPKELYIIEHGSNVTLECNFDTGSHVNLGAITASLQKVENDTSPHRERATLLEEQLPLGKASFHIPQVQVRDEGQYQCIIIYGDAWDYKYLTLKVKA | – | – | – | – | – | – | 0.005 | IFN gamma levels pg/mL (MLR) [7]: 1170 pg/mL |
| variant CD80 A91G/F92L/F108L/I118V/T120S (Fc fusion) VIHVTKEVKEVATLSCGHNVSVEELAQTRIYWQKEKKMVLTMMSGDMNIWPEYKNRTIFDITNNLSIVILALRPSDEGTYECVVLKYEKDGLKREHLAEVTLSVKADLPTPSISDFEVPSSNIRRIICSTSGGFPEPHLSWLENGEELNAINTTVSQDPETELYAVSSKLDFNMTTNHSFMCLIKYGHLRVNQTFNWNTTKQEHFPDN | – | – | – | – | – | – | – | MFI [1]: 16 MFI; parental ratio [1]: 0.11; MFI [2]: 50 MFI; parental ratio [2]: 0.53; MFI [3]: 128 MFI; parental ratio [3]: 0.61 |
| variant CD80 K36G/K37Q/M38I/L40M (Fc fusion) VIHVTKEVKEVATLSCGHNVSVEELAQTRIYWQKEGQIVMTMMSGDMNIWPEYKNRTIFDITNNLSIVILALRPSDEGTYECVVLKYEKDAFKREHLAEVTLSVKADFPTPSISDFEIPTSNIRRIICSTSGGFPEPHLSWLENGEELNAINTTVSQDPETELYAVSSKLDFNMTTNHSFMCLIKYGHLRVNQTFNWNTTKQEHFPDN | – | – | – | – | – | – | – | MFI [1]: 959 MFI; parental ratio [1]: 0.05; MFI [2]: 1170 MFI; parental ratio [2]: 0.09; MFI [3]: 1400 MFI; parental ratio [3]: 0.03 |
